# Results: the Human Domainome abundance scans (Beltran et al. 2025)
# ± gives the uncertainty stated by the source.
# B1: POU domain, class 2, transcription factor 1, residues 285 to 354; numbered along this chain, P14859 (parent)
# chain: LEELEQFAKTFKQRRIKLGFTQGDVGLAMGKLYGNDFSQTTISRFEALNLSFKNMCKLKPLLEKWLNDAE
# Variants of: B1
# Assay: abundance fitness (aPCA) (normalised: wild type 0, dead -1); higher = more abundant; growth selection in yeast, the domain comes from the species named
# Details: Homo sapiens
row,Variant,abundance fitness
1,LEELEQFAKTFKQRRIKLGFTQGDVGLAMGKLYGNDFSQTTICRFEALNLSFKNMCKLKPLLEKWLNDAE [S43C],-0.033 ± 0.086
2,LEELEQFAKTFKQRRIKLGFTQGDVGLAMGKLYGNDFSQTTIYRFEALNLSFKNMCKLKPLLEKWLNDAE [S43Y],-0.053 ± 0.055
3,LEELEQFAKTFKQRRIKLGFTQGDVGLAMGKLYGNDFSQTTITRFEALNLSFKNMCKLKPLLEKWLNDAE [S43T],-0.007 ± 0.039
4,LEELEQFAKTFKQRRIKLGFTQGDVGLAMGKLYGNDFSQTTIKRFEALNLSFKNMCKLKPLLEKWLNDAE [S43K],0.121 ± 0.11
5,LEELEQFAKTFKQRRIKLGFTQGDVGLAMGKLYGNDFSQTTIIRFEALNLSFKNMCKLKPLLEKWLNDAE [S43I],-0.064 ± 0.05
6,LEELEQFAKTFKQRRIKLGFTQGDVGLAMGKLYGNDFSQTTIPRFEALNLSFKNMCKLKPLLEKWLNDAE [S43P],-0.03 ± 0.027
7,LEELEQFAKTFKQRRIKLGFTQGDVGLAMGKLYGNDFSQTTIGRFEALNLSFKNMCKLKPLLEKWLNDAE [S43G],-0.156 ± 0.16
8,LEELEQFAKTFKQRRIKLGFTQGDVGLAMGKLYGNDFSQRTISRFEALNLSFKNMCKLKPLLEKWLNDAE [T40R],0.014 ± 0.024
9,LEELEQFAKTFKQRRIKLGFTQGDVGLAMGKLYGNDFSQKTISRFEALNLSFKNMCKLKPLLEKWLNDAE [T40K],-0.071 ± 0.087
10,LEELEQFAKTFKQRRIKLGFTQGDVGLAMGKLYGNDFSQETISRFEALNLSFKNMCKLKPLLEKWLNDAE [T40E],-0.354 ± 0.25
11,LEELEQFAKTFKQRRIKLGFTQGDVGLAMGKLYGNDFSQLTISRFEALNLSFKNMCKLKPLLEKWLNDAE [T40L],-0.001 ± 0.019
12,LEELEQFAKTFKQRRIKLGFTQGDVGLAMGKLYGNDFSQPTISRFEALNLSFKNMCKLKPLLEKWLNDAE [T40P],-0.032 ± 0.023
13,LEELEQFAKTFKQRRIKLGFTQGDVGLAMGKLYGNDFSQDTISRFEALNLSFKNMCKLKPLLEKWLNDAE [T40D],-0.15 ± 0.11
14,LEELEQFAKTFKQRRIKLGFTQGDVGLAMGKLYGNDFSQQTISRFEALNLSFKNMCKLKPLLEKWLNDAE [T40Q],0.016 ± 0.041
15,LEELEQFAKTFKQRRIKLGFTQGDVGLAMGKLYGNDFSQWTISRFEALNLSFKNMCKLKPLLEKWLNDAE [T40W],-0.054 ± 0.049
16,LEELEQFAKTFKQRRIKLGFTQGDVGLAMGKLYGNDFSQMTISRFEALNLSFKNMCKLKPLLEKWLNDAE [T40M],-0.059 ± 0.039
17,LEELEQFAKTFKQRRIKLGFTQGDVGLAMGKLYGNDFSQGTISRFEALNLSFKNMCKLKPLLEKWLNDAE [T40G],-0.028 ± 0.06
18,LEELEQFAKTFKQRRIKLGFTQGDVGLAMGKLYGNDFSQHTISRFEALNLSFKNMCKLKPLLEKWLNDAE [T40H],-0.035 ± 0.072
19,LEELEQFAKTFKQRRIKLGFTQGDVGLAMGKLYGNDFSQITISRFEALNLSFKNMCKLKPLLEKWLNDAE [T40I],-0.142 ± 0.078
20,LEELEQFAKTFKQRRIKLGFTQGDVGLAMGKLYGNDFSQYTISRFEALNLSFKNMCKLKPLLEKWLNDAE [T40Y],0.077 ± 0.21

row,Variant,abundance fitness
1,LEELEQFAKTFKQRRIKLGFTQGDVGLAMGKLYGNDFSQSTISRFEALNLSFKNMCKLKPLLEKWLNDAE [T40S],-0.007 ± 0.032
2,LEELEQFAKTFKQRRIKLGFTQGDVGLAMGKLYGNDFSQFTISRFEALNLSFKNMCKLKPLLEKWLNDAE [T40F],0.067 ± 0.068
3,LEELEQFAKTFKQRRIKLGFTQGDVGLAMGKLYGNDFSQCTISRFEALNLSFKNMCKLKPLLEKWLNDAE [T40C],0.019 ± 0.097
4,LEELEQFAKTFKQRRIKLGFTQGDVGLAMGKLYGNDFSQNTISRFEALNLSFKNMCKLKPLLEKWLNDAE [T40N],0.004 ± 0.13
5,LEELEQFAKTFKQRRIKLGFTQGDVGLAMGKLYGNDFSQTTMSRFEALNLSFKNMCKLKPLLEKWLNDAE [I42M],-0.276 ± 0.047
6,LEELEQFAKTFKQRRIKLGFTQGDVGLAMGKLYGNDFSQTTRSRFEALNLSFKNMCKLKPLLEKWLNDAE [I42R],-0.869 ± 0.051
7,LEELEQFAKTFKQRRIKLGFTQGDVGLAMGKLYGNDFSQTTQSRFEALNLSFKNMCKLKPLLEKWLNDAE [I42Q],-0.948 ± 0.071
8,LEELEQFAKTFKQRRIKLGFTQGDVGLAMGKLYGNDFSQTTGSRFEALNLSFKNMCKLKPLLEKWLNDAE [I42G],-1.09 ± 0.058
9,LEELEQFAKTFKQRRIKLGFTQGDVGLAMGKLYGNDFSQTTHSRFEALNLSFKNMCKLKPLLEKWLNDAE [I42H],-0.983 ± 0.17
10,LEELEQFAKTFKQRRIKLGFTQGDVGLAMGKLYGNDFSQTTSSRFEALNLSFKNMCKLKPLLEKWLNDAE [I42S],-0.997 ± 0.062
11,LEELEQFAKTFKQRRIKLGFTQGDVGLAMGKLYGNDFSQTTWSRFEALNLSFKNMCKLKPLLEKWLNDAE [I42W],-0.655 ± 0.079
12,LEELEQFAKTFKQRRIKLGFTQGDVGLAMGKLYGNDFSQTTASRFEALNLSFKNMCKLKPLLEKWLNDAE [I42A],-0.655 ± 0.021
13,LEELEQFAKTFKQRRIKLGFTQGDVGLAMGKLYGNDFSQTTNSRFEALNLSFKNMCKLKPLLEKWLNDAE [I42N],-0.805 ± 0.091
14,LEELEQFAKTFKQRRIKLGFTQGDVGLAMGKLYGNDFSQTTCSRFEALNLSFKNMCKLKPLLEKWLNDAE [I42C],-0.336 ± 0.16
15,LEELEQFAKTFKQRRIKLGFTQGDVGLAMGKLYGNDFSQTTLSRFEALNLSFKNMCKLKPLLEKWLNDAE [I42L],-0.074 ± 0.032
16,LEELEQFAKTFKQRRIKLGFTQGDVGLAMGKLYGNDFSQTTYSRFEALNLSFKNMCKLKPLLEKWLNDAE [I42Y],-0.674 ± 0.25
17,LEELEQFAKTFKQRRIKLGFTQGDVGLAMGKLYGNDFSQTTDSRFEALNLSFKNMCKLKPLLEKWLNDAE [I42D],-1.08 ± 0.1
18,LEELEQFAKTFKQRRIKLGFTQGDVGLAMGKLYGNDFSQTTPSRFEALNLSFKNMCKLKPLLEKWLNDAE [I42P],-0.877 ± 0.04
19,LEELEQFAKTFKQRRIKLGFTQGDVGLAMGKLYGNDFSQTTKSRFEALNLSFKNMCKLKPLLEKWLNDAE [I42K],-0.789 ± 0.08
